Data as given in paper PMC4376459, “CXCR3 antagonist VUF10085 binds to an intrahelical site distinct from that of the broad spectrum antagonist TAK-779” (British Journal of Pharmacology, 2015).

T1: CXCR3 I279A (Homo sapiens, UniProt P49682, I279A)
T1 construct: expressed in transfected cells; host or cells: murine pre-B cell line L1.2, transient transfection
T1 sequence (P49682 1-368 I279A): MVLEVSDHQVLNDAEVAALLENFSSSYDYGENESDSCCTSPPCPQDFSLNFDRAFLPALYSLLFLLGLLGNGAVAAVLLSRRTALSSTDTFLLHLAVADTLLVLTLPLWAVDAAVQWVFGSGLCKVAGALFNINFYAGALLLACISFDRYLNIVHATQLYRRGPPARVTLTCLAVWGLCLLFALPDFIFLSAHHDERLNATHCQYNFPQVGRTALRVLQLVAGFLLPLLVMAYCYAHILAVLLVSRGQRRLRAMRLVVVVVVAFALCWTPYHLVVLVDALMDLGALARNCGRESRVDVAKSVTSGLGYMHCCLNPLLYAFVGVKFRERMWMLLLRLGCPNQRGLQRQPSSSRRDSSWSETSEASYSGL

T2: CXCR3 (Homo sapiens, UniProt P49682)
T2 sequence (P49682 1-368): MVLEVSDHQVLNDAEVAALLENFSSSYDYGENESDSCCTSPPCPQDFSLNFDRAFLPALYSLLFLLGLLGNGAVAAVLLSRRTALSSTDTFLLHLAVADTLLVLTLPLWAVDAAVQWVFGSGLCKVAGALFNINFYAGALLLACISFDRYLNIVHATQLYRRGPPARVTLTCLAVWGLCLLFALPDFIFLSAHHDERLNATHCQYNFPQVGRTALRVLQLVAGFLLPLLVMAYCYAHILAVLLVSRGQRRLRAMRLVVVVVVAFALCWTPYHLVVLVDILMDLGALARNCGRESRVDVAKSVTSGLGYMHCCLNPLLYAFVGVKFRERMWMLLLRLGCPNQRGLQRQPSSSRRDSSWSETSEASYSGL

T3: CXCL11 (Homo sapiens, UniProt O14625)
T3 chain: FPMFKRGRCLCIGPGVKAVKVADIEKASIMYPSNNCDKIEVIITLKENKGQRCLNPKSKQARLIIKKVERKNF


Columns and labels:
[1] = biological target: T1, CXCR3 I279A; assay: Whole-cell 125I-CXCL11 binding assay, L1.2 transfectants; conditions: I279A versus WT
[2] = biological target: T2, CXCR3; assay: Activity at CXCR3 (data not shown)
[3] = biological target: T3, CXCL11; assay: homologous competition binding with 125I-CXCL11 on L1.2 transfectants

Row | Kd [3] [nM] | Molecule | further results
1 | – | CCOc1ccc(-n2c(C(C)N(Cc3cccnc3)C(=O)Cc3ccc(OC(F)(F)F)cc3)nc3ncccc3c2=O)cc1 (stereo not drawn) [VUF 10085, N-1R-[3-(4-ethoxy-phenyl)-4-oxo-3,4-dihydro-pyrido[2,3-d]pyrimidin-2-yl]-ethyl-N-pyridin-3-ylmethyl-2-(4-trifluoromethoxy-phenyl)-acetamide] | decrease in potency, ligand binding [1]: twofold
2 | – | CCCCOCCOc1ccc(-c2ccc3c(c2)/C=C(/C(=O)Nc2ccc([S@@+]([O-])Cc4cncn4CCC)cc2)CCCN3CC(C)C)cc1 [TAK-652] | activity at CXCR3 [2]: devoid of activity
3 | 10.4 | CXCR3 (protein) MVLEVSDHQVLNDAEVAALLENFSSSYDYGENESDSCCTSPPCPQDFSLNFDRAFLPALYSLLFLLGLLGNGAVAAVLLSRRTALSSTDTFLLHLAVADTLLVLTLPLWAVDAAVQWVFGSGLCKVAGALFNINFYAGALLLACISFDRYLNIVHATQLYRRGPPARVTLTCLAVWGLCLLFALPDFIFLSAHHDERLNATHCQANFPQVGRTALRVLQLVAGFLLPLLVMAYCYAHILAVLLVSRGQRRLRAMRLVVVVVVAFALCWTPYHLVVLVDILMDLGALARNCGRESRVDVAKSVTSGLGYMHCCLNPLLYAFVGVKFRERMWMLLLRLGCPNQRGLQRQPSSSRRDSSWSETSEASYSGL | –
4 | 2.9 | CXCR3 (protein) MVLEVSDHQVLNDAEVAALLENFSSSYDYGENESDSCCTSPPCPQDFSLNFDRAFLPALYSLLFLLGLLGNGAVAAVLLSRRTALSSTDTFLLHLAVADTLLVLTLPLWAVDAAVQWVFGSGLCKVAGALFNINFYAGALLLACISFDRYLNIVHATQLYRRGPPARVTLTCLAVWGLCLLFALPDFIFLSAHHDERLNATACQYNFPQVGRTALRVLQLVAGFLLPLLVMAYCYAHILAVLLVSRGQRRLRAMRLVVVVVVAFALCWTPYHLVVLVDILMDLGALARNCGRESRVDVAKSVTSGLGYMHCCLNPLLYAFVGVKFRERMWMLLLRLGCPNQRGLQRQPSSSRRDSSWSETSEASYSGL | –
5 | 7.7 | CXCR3 (protein) MVLEVSDHQVLNDAEVAALLENFSSSYDYGENESDSCCTSPPCPQDFSLNFDRAFLPALYSLLFLLGLLGNGAVAAVLLSRRTALSSTDTFLLHLAVADTLLVLTLPLWAVDAAVQWVFGSGLCKVAGALFNINFYAGALLLACISFDRYLNIVHATQLYRRGPPARVTLTCLAVWGLCLLFALPDFIFLSAHHDERLNATHCQYNFPQVGRTALRVLQLVAGFLLPLLVMAYCYAHILAVLLVSRGQRRLRAMRLVVVVVVAFALCWTPYHLVVLVDILMDLGALARNCGRESRVDVAKSVTSGLGYMHCCLNPLLYAFVGVKFRERMWMLLLRLGCPNQRGLQRQPSSSRRDSSWSETSEASYSGL | –
6 | 1.8 | CXCR3 (protein) MVLEVSDHQVLNDAEVAALLENFSSSYDYGENESDSCCTSPPCPQDFSLNFDRAFLPALASLLFLLGLLGNGAVAAVLLSRRTALSSTDTFLLHLAVADTLLVLTLPLWAVDAAVQWVFGSGLCKVAGALFNINFYAGALLLACISFDRYLNIVHATQLYRRGPPARVTLTCLAVWGLCLLFALPDFIFLSAHHDERLNATHCQYNFPQVGRTALRVLQLVAGFLLPLLVMAYCYAHILAVLLVSRGQRRLRAMRLVVVVVVAFALCWTPYHLVVLVDILMDLGALARNCGRESRVDVAKSVTSGLGYMHCCLNPLLYAFVGVKFRERMWMLLLRLGCPNQRGLQRQPSSSRRDSSWSETSEASYSGL | –
7 | 7.4 | CXCR3 (protein) MVLEVSDHQVLNDAEVAALLENFSSSYDYGENESDSCCTSPPCPQDFSLNFDRAFLPALYSLLFLLGLLGNGAVAAVLLSRRTALSSTDTFLLHLAVADTLLVLTLPLWAVDAAVQWVFGSGLCKVAGALFNINFYAGALLLACISFDRYLNIVHATQLYRRGPPARVTLTCLAVWGLCLLFALPDFIFLSAHHDERLNATHCQYNFPQVGRTALRVLQLVAGFLLPLLVMAYCYAHILAVLLVSRGQRRLRAMRLVVVVVVAFALCWTPYHLVALVDILMDLGALARNCGRESRVDVAKSVTSGLGYMHCCLNPLLYAFVGVKFRERMWMLLLRLGCPNQRGLQRQPSSSRRDSSWSETSEASYSGL | –
8 | 1.1 | CXCR3 (protein) MVLEVSDHQVLNDAEVAALLENFSSSYDYGENESDSCCTSPPCPQDFSLNFDRAFLPALYSLLFLLGLLGNGAVAAVLLSRRTALSSTDTFLLHLAVADTLLVLTLPLWAVDAAVQWVFGSGLCKVAGALANINFYAGALLLACISFDRYLNIVHATQLYRRGPPARVTLTCLAVWGLCLLFALPDFIFLSAHHDERLNATHCQYNFPQVGRTALRVLQLVAGFLLPLLVMAYCYAHILAVLLVSRGQRRLRAMRLVVVVVVAFALCWTPYHLVVLVDILMDLGALARNCGRESRVDVAKSVTSGLGYMHCCLNPLLYAFVGVKFRERMWMLLLRLGCPNQRGLQRQPSSSRRDSSWSETSEASYSGL | –
